Molecular target: SEQ ID NO. 25, Ac-…dPSxG-NH2

Row | Protein | reaction rate, PDGF-treated NIH3T3 lysate | reaction rate, control treated NIH3T3 lysate
1 | Akt1 (protein) MNDVAIVKEGWLHKRGEYIKTWRPRYFLLKNDGTFIGYKERPQDVDQRESPLNNFSVAQCQLMKTERPRPNTFIIRCLQWTTVIERTFHVETPEEREEWATAIQTVADGLKRQEEETMDFRSGSPSDNSGAEEMEVSLAKPKHRVTMNEFEYLKLLGKGTFGKVILVKEKATGRYYAMKILKKEVIVAKDEVAHTLTENRVLQNSRHPFLTALKYSFQTHDRLCFVMEYANGGELFFHLSRERVFSEDRARFYGAEIVSALDYLHSEKNVVYRDLKLENLMLDKDGHIKITDFGLCKEGIKDGATMKTFCGTPEYLAPEVLEDNDYGRAVDWWGLGVVMYEMMCGRLPFYNQDHEKLFELILMEEIRFPRTLGPEAKSLLSGLLKKDPTQRLGGGSEDAKEIMQHRFFANIVWQDVYEKKLSPPFKPQVTSETDTRYFDEEFTAQMITITPPDQDDSMECVDSERRPHFPQFSYSASGTA | The PDGF-treated sample showed a reaction rate of 1.13 RFU/sec | the control treated sample had a markedly reduced rate of 0.12 RFU/sec
2 | Akt3 (protein) SDVTIVKEGWVQKRGEYIKNWRPRYFLLKTDGSFIGYKEKPQDVDLPYPLNNFSVAKCQLMKTERPKPNTFIIRCLQWTTVIERTFHVDTPEEREEWTEAIQAVADRLQRQEEERMNCSPTSQIDNIGEEEMDASTTHHKRKTMNDFDYLKLLGKGTFGKVILVREKASGKYYAMKILKKEVIIAKDEVAHTLTESRVLKNTRHPFLTSLKYSFQTKDRLCFVMEYVNGGELFFHLSRERVFSEDRTRFYGAEIVSALDYLHSGKIVYRDLKLENLMLDKDGHIKITDFGLCKEGITDAATMKTFCGTPEYLAPEVLEDNDYGRAVDWWGLGVVMYEMMCGRLPFYNQDHEKLFELILMEDIKFPRTLSSDAKSLLSGLLIKDPNKRLGGGPDDAKEIMRHSFFSGVNWQDVYDKKLVPPFKPQVTSETDTRYFDEEFTAQTITITPPEKYDDDGMDGMDNERRPHFPQFSYSASGRE | The PDGF-treated sample showed a reaction rate of 1.24 RFU/sec | the control treated sample had a markedly reduced rate of 0.28 RFU/sec

From US20070196860
